Paper PMC10531985, “A Unique G-Quadruplex Aptamer: A Novel Approach for Cancer Cell Recognition, Cell Membrane Visualization, and RSV Infection Detection”

What was measured:
nucleolin (NCL) [1] = biological target: T1, nucleolin (NCL) (Homo sapiens, UniProt P19338 1-710); assay: SPR; up to 2 uM aptamer; SPR: 10 mM HEPES, 150 mM KCl, 3 mM EDTA, pH 7.4, NCL on CM5 chip, temperature not stated; EMSA: 5x binding buffer listed as 40 mM Tris, 30 mM KCl, 1 mM MgCl2, 1 mM DTT, pH 8.0, 200 nM probe, room temperature 25 min, gel with 20 mM KCl at 4 C; settings: protein: recombinant; no G4
T1 sequence (P19338 whole entry): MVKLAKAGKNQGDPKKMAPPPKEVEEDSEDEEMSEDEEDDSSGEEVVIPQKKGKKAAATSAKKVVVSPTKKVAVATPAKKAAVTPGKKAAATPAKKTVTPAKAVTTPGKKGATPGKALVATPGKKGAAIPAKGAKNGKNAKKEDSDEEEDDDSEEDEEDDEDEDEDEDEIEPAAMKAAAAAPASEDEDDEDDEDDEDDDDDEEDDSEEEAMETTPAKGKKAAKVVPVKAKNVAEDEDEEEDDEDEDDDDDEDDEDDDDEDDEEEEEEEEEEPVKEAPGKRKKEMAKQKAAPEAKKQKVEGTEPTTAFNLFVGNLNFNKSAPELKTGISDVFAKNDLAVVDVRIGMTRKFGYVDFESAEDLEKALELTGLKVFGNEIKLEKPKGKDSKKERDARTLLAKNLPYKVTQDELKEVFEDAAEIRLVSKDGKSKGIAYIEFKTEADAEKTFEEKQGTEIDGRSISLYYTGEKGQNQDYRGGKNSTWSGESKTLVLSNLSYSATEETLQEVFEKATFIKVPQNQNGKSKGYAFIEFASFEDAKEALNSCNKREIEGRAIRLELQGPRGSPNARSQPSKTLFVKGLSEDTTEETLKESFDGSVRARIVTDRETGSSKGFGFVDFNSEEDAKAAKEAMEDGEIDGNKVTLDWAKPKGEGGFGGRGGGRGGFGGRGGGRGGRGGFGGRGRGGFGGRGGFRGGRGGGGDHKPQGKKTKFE

nucleolin (NCL) [2] = biological target: T1, nucleolin (NCL); assay: SPR; 150 mM KCl; SPR: 10 mM HEPES, 150 mM KCl, 3 mM EDTA, pH 7.4, NCL on CM5 chip, temperature not stated; EMSA: 5x binding buffer listed as 40 mM Tris, 30 mM KCl, 1 mM MgCl2, 1 mM DTT, pH 8.0, 200 nM probe, room temperature 25 min, gel with 20 mM KCl at 4 C; settings: protein: recombinant, parallel G4
nucleolin (NCL) [3] = biological target: T1, nucleolin (NCL); assay: EMSA; K+; SPR: 10 mM HEPES, 150 mM KCl, 3 mM EDTA, pH 7.4, NCL on CM5 chip, temperature not stated; EMSA: 5x binding buffer listed as 40 mM Tris, 30 mM KCl, 1 mM MgCl2, 1 mM DTT, pH 8.0, 200 nM probe, room temperature 25 min, gel with 20 mM KCl at 4 C; settings: protein: recombinant; label: 5'-FAM; parallel G4

GUUAGAGUUUAUGAGAUUG (ssRNA) [Apt-3 mutant]: no binding (nucleolin (NCL) [1]).

With GUUAGGGUUUAUGGGAUUG (structured_RNA) [Apt-3] the Kd (nucleolin (NCL) [2]) was 20.4 nM.

GUUAGGGUUUAUGGGAUUG (structured_RNA) [Apt-3-F] gave a Kd (nucleolin (NCL) [2]; label: 5'-FAM) of 24.9 nM and a Kd (nucleolin (NCL) [3]) of 77.1 nM.
